What was measured:
[1] = biological target: T1, human CD40 expressed on cells (human, UniProt P25942 21-277); assay: flow cytometry, Raji cells;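 note: cell binding of antibodies to Raji cells detected by flow cytometry using an Alexa488-labelled anti-human IgG secondary antibody, primary incubation 1 h at 4 °C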
T1 construct: also called huCD40; Raji cells
Method: CD40 positive cells (Raji cells) were detatched from the culture bottle using Trypsin and were counted using a Casy cell counter. After pelleting at 4° C., the cells were resuspended in FACS Buffer (2.5% FCS in PBS), adjusted to 2.0E+06 cells/mL, and dispensed to 96-well PP V-bottom-plates (25 μL/well=5.0E+04Zellen/well).
The CD40 specific antibodies were adjusted to 20 μg/mL in FACS buffer, resulting in a final concentration of 10 μg/mL. 20 μl were added to 25 μl cell suspension and incubated for 1 h at 4° C. The cells were then washed twice in FACS buffer. After washing, the cells were resuspended in 50 μL FACS-buffer containing secondary antibody (<huIgG>-Alexa488, c=10 μg/mL) and incubated 1 h bei 4° C. The cells were then washed twice in FACS buffer and resuspended in 70 μl/well FACS buffer for measurement using a FACS Canto (BD, Pharmingen).

[2] = biological target: T2, human CD40 extracellular domain with C-terminal His-AviTag (human, UniProt P25942 21-193); assay: SPR, antibody captured, CD40 ECD analyte;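 note: biacore SPR at 25 °C in PBS-T pH 7.4, CD40 ECD analyte from 300 nM in 1:3 series, 300 s association, up to 1200 s dissociation, double-referenced, Langmuir 1:1 fit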
T2 construct: not shown: C-terminal His-AviTag

Binder | EC50 [1] | Kd [2] | koff [2] | kon [2]
P1AE0817, humanized anti-CD40 antibody VH1a/VL1a, huIgG1_LALA_PG (antibody, V domains shown) VH: QVQLVQSGAEVKKPGASVKVSCKASGYSFTGYYIHWVRQAPGQSLEWMGRVIPNAGGTSYNQKFKGRVTLTVDKSISTAYMELSRLRSDDTAVYYCAREGIYWWGQGTTVTVSS VL: DIVMTQTPLSLSVTPGQPASISCRSSQSLVHSNGNTFLHWYLQKPGQSPQLLIYTVSNRFSGVPDRFSGSGSGTDFTLKISRVEAEDVGVYFCSQTTHVPWTFGGGTKVEIKR | 0.09 µg/mL | 2.5 nM | 0.00593 s⁻¹ | 2.4e+06 M⁻¹ s⁻¹
P1AE0993, humanized anti-CD40 antibody VH1a/VL1c, huIgG1_LALA_PG (antibody, V domains shown, huIgG1 with effector silent Fc (P329G, L234A, L235A)) VH: QVQLVQSGAEVKKPGASVKVSCKASGYSFTGYYIHWVRQAPGQSLEWMGRVIPNAGGTSYNQKFKGRVTLTVDKSISTAYMELSRLRSDDTAVYYCAREGIYWWGQGTTVTVSS VL: DVVVTQTPLSLSVTPGQPASISCRSSQSLVHSNGNTFLHWYLQKPGQSPQLLIYTVSNRFSGVPDRFSGSGSGTDFTLKISRVEAEDVGVYFCSQTTHVPWTFGGGTKVEIK | 0.13 µg/mL | 3.4 nM | 0.00898 s⁻¹ | 2.68e+06 M⁻¹ s⁻¹
P1AE0818, humanized anti-CD40 antibody VH1c/VL1c, huIgG1_LALA_PG (antibody, V domains shown, huIgG1 with effector silent Fc (P329G, L234A, L235A)) VH: QVQLVQSGAEVKKPGASVKVSCKASGYSFTGYYIHWVRQAPGQSLEWMGRVIPNAGGTSYNQKFKGRVTLTVDKSISTAYMELSRLRSDDTAVYYCAREGIYWWGHGTTVTVSS VL: DVVVTQTPLSLSVTPGQPASISCRSSQSLVHSNGNTFLHWYLQKPGQSPQLLIYTVSNRFSGVPDRFSGSGSGTDFTLKISRVEAEDVGVYFCSQTTHVPWTFGGGTKVEIK | 0.14 µg/mL | 3.2 nM | 0.00847 s⁻¹ | 2.63e+06 M⁻¹ s⁻¹
P1AE0819, humanized anti-CD40 antibody VH1d/VL1d, huIgG1_LALA_PG (antibody, V domains shown, huIgG1 with effector silent Fc (P329G, L234A, L235A)) VH: QVQLVQSGAEVKKPGASVKVSCKASGYSFTGYYIHWVRQAPGQSLEWMGRVIPNAGGTSYNQKFKGRVTLSVDKSISTAYMELSRLRSDDTAVYYCAREGIYWWGQGTTVTVSS VL: DVVVTQTPLSLSVTPGQPASISCRSSQSLVHSNGNTFLHWYLQKPGQSPQLLIYTVSNRFSGVPDRFSGSGSGTDFTLKISRVEAEDVGVYFCSQTTHVPWTFGGGTKLEIK | 0.11 µg/mL | 3.4 nM | 0.00877 s⁻¹ | 2.59e+06 M⁻¹ s⁻¹
P1AE0997, humanized anti-CD40 antibody VH1c/VL1a, huIgG1_LALA_PG (antibody, V domains shown, huIgG1 with effector silent Fc (P329G, L234A, L235A)) VH: QVQLVQSGAEVKKPGASVKVSCKASGYSFTGYYIHWVRQAPGQSLEWMGRVIPNAGGTSYNQKFKGRVTLTVDKSISTAYMELSRLRSDDTAVYYCAREGIYWWGHGTTVTVSS VL: DIVMTQTPLSLSVTPGQPASISCRSSQSLVHSNGNTFLHWYLQKPGQSPQLLIYTVSNRFSGVPDRFSGSGSGTDFTLKISRVEAEDVGVYFCSQTTHVPWTFGGGTKVEIK | 0.12 µg/mL | 2.3 nM | 0.00603 s⁻¹ | 2.59e+06 M⁻¹ s⁻¹
P1AE0996, humanized anti-CD40 antibody VH1a/VL1d, huIgG1_LALA_PG (antibody, V domains shown, huIgG1 with effector silent Fc (P329G, L234A, L235A)) VH: QVQLVQSGAEVKKPGASVKVSCKASGYSFTGYYIHWVRQAPGQSLEWMGRVIPNAGGTSYNQKFKGRVTLTVDKSISTAYMELSRLRSDDTAVYYCAREGIYWWGQGTTVTVSS VL: DVVVTQTPLSLSVTPGQPASISCRSSQSLVHSNGNTFLHWYLQKPGQSPQLLIYTVSNRFSGVPDRFSGSGSGTDFTLKISRVEAEDVGVYFCSQTTHVPWTFGGGTKLEIK | 0.12 µg/mL | 3.5 nM | 0.00908 s⁻¹ | 2.59e+06 M⁻¹ s⁻¹
P1AE0400, humanized anti-CD40 antibody VH2a/VL2a, huIgG1_LALA_PG (antibody, V domains shown, also called VL2a/VH2a) VH: EVQLLESGGGLVQPGGSLRLSCAASGYSFTGYYIHWVRQAPGKGLEWVGRVIPNAGGTSYNQKFKGRFTISVDNSKNTAYLQMNSLRAEDTAVYYCAREGIYWWGQGTTVTVSS VL: DIQMTQSPSSLSASVGDRVTITCRSSQSLVHSNGNTFLHWYQQKPGKAPKLLIYTVSNRFSGVPSRFSGSGSGTDFTLTISSLQPEDFATYFCSQTTHVPWTFGGGTKVEIKR | 0.12 µg/mL | 4.2 nM | 0.00699 s⁻¹ | 1.68e+06 M⁻¹ s⁻¹
P1AE0404, humanized anti-CD40 antibody VH2a/VL2b, huIgG1_LALA_PG (antibody, V domains shown, huIgG1 with effector silent Fc (P329G, L234A, L235A); also called VL2b/VH2a) VH: EVQLLESGGGLVQPGGSLRLSCAASGYSFTGYYIHWVRQAPGKGLEWVGRVIPNAGGTSYNQKFKGRFTISVDNSKNTAYLQMNSLRAEDTAVYYCAREGIYWWGQGTTVTVSS VL: DIQMTQSPSSLSASVGDRVTITCRSSQSLVHSNGNTFLHWYQQKPGQSPKLLIYTVSNRFSGVPSRFSGSGSGTDFTLTISSLQPEDFATYFCSQTTHVPWTFGGGTKVEIK | 0.11 µg/mL | 4.2 nM | 0.00693 s⁻¹ | 1.63e+06 M⁻¹ s⁻¹
P1AE0406, humanized anti-CD40 antibody VH2c/VL2b, huIgG1_LALA_PG (antibody, V domains shown, huIgG1 with effector silent Fc (P329G, L234A, L235A); also called VL2b/VH2c) VH: EVQLLESGGGLVQPGGSLRLSCAASGYSFTGYYIHWVRQAPGKGLEWVGRVIPNAGGTSYNQKFKGRFTISVDNSKNTAYLQMNSLRAEDTAVYYCAREGIYWWGHGTTVTVSS VL: DIQMTQSPSSLSASVGDRVTITCRSSQSLVHSNGNTFLHWYQQKPGQSPKLLIYTVSNRFSGVPSRFSGSGSGTDFTLTISSLQPEDFATYFCSQTTHVPWTFGGGTKVEIK | 0.09 µg/mL | 4.2 nM | 0.00709 s⁻¹ | 1.67e+06 M⁻¹ s⁻¹
P1AE0403, humanized anti-CD40 antibody VH2d/VL2a, huIgG1_LALA_PG (antibody, V domains shown, also called VL2a/VH2d) VH: EVQLLESGGGLVQPGGSLRLSCAASGYSFTGYYIHWVRQAPGKGLEWVGRVIPNAGGTSYGDSVKGRFTISVDNSKNTAYLQMNSLRAEDTAVYYCAREGIYWWGQGTTVTVSS VL: DIQMTQSPSSLSASVGDRVTITCRSSQSLVHSNGNTFLHWYQQKPGKAPKLLIYTVSNRFSGVPSRFSGSGSGTDFTLTISSLQPEDFATYFCSQTTHVPWTFGGGTKVEIKR | 0.12 µg/mL | 29 nM | 0.0407 s⁻¹ | 1.4e+06 M⁻¹ s⁻¹
P1AE0401, humanized anti-CD40 antibody VH2b/VL2a, huIgG1_LALA_PG (antibody, V domains shown, huIgG1 with effector silent Fc (P329G, L234A, L235A); also called VL2a/VH2b) VH: EVQLLESGGGLVQPGGSLRLSCAASGYSFTGYYIHWVRQAPGKSLEWVGRVIPNAGGTSYNQKFKGRFTISVDNSKNTAYLQMNSLRAEDTAVYYCAREGIYWWGQGTTVTVSS VL: DIQMTQSPSSLSASVGDRVTITCRSSQSLVHSNGNTFLHWYQQKPGKAPKLLIYTVSNRFSGVPSRFSGSGSGTDFTLTISSLQPEDFATYFCSQTTHVPWTFGGGTKVEIK | 0.13 µg/mL | 4.6 nM | 0.00787 s⁻¹ | 1.69e+06 M⁻¹ s⁻¹
P1AE0405, humanized anti-CD40 antibody VH2b/VL2b, huIgG1_LALA_PG (antibody, V domains shown, huIgG1 with effector silent Fc (P329G, L234A, L235A); also called VL2b/VH2b) VH: EVQLLESGGGLVQPGGSLRLSCAASGYSFTGYYIHWVRQAPGKSLEWVGRVIPNAGGTSYNQKFKGRFTISVDNSKNTAYLQMNSLRAEDTAVYYCAREGIYWWGQGTTVTVSS VL: DIQMTQSPSSLSASVGDRVTITCRSSQSLVHSNGNTFLHWYQQKPGQSPKLLIYTVSNRFSGVPSRFSGSGSGTDFTLTISSLQPEDFATYFCSQTTHVPWTFGGGTKVEIK | 0.09 µg/mL | 5.1 nM | 0.00814 s⁻¹ | 1.61e+06 M⁻¹ s⁻¹
P1AE0407, humanized anti-CD40 antibody VH2d/VL2b, huIgG1_LALA_PG (antibody, V domains shown, huIgG1 with effector silent Fc (P329G, L234A, L235A); also called VL2b/VH2d) VH: EVQLLESGGGLVQPGGSLRLSCAASGYSFTGYYIHWVRQAPGKGLEWVGRVIPNAGGTSYGDSVKGRFTISVDNSKNTAYLQMNSLRAEDTAVYYCAREGIYWWGQGTTVTVSS VL: DIQMTQSPSSLSASVGDRVTITCRSSQSLVHSNGNTFLHWYQQKPGQSPKLLIYTVSNRFSGVPSRFSGSGSGTDFTLTISSLQPEDFATYFCSQTTHVPWTFGGGTKVEIK | 0.12 µg/mL | 30 nM | 0.0355 s⁻¹ | 1.19e+06 M⁻¹ s⁻¹
P1AE0402, humanized anti-CD40 antibody VH2c/VL2a, huIgG1_LALA_PG (antibody, V domains shown, huIgG1 with effector silent Fc (P329G, L234A, L235A); also called VL2a/VH2c) VH: EVQLLESGGGLVQPGGSLRLSCAASGYSFTGYYIHWVRQAPGKGLEWVGRVIPNAGGTSYNQKFKGRFTISVDNSKNTAYLQMNSLRAEDTAVYYCAREGIYWWGHGTTVTVSS VL: DIQMTQSPSSLSASVGDRVTITCRSSQSLVHSNGNTFLHWYQQKPGKAPKLLIYTVSNRFSGVPSRFSGSGSGTDFTLTISSLQPEDFATYFCSQTTHVPWTFGGGTKVEIK | 0.13 µg/mL | 4.2 nM | 0.00709 s⁻¹ | 1.67e+06 M⁻¹ s⁻¹

Source: patent US20250320305A1 (Hoffmann-La Roche, published 2025)
